Entries after “also recorded” stand apart in the source; their conditions may differ.
Assays:
Format in all cases: biochemical
dog IgG = experiment: Immunoglobulin specificity on SDS-PAGE: dog IgG; conditions: o/n at 37° C.
Procedure: (§1) FIG. 11. Specificity of IdeSork2.0. IdeSork2.0 was mixed with different antibodies and incubated o/n at 37° C. before analysis on SDS-PAGE.
(§2) Various antibodies and antibody based therapeutics were incubated with Xork, IdeS, or IdeZ (1:40 ratio) for 1 hour at 37° C. in PBS, with substrate concentrations ranging between 2-5 mg/mL, before being analyzed on SDS-PAGE. For kinetic studies, a substrate level of 2-200 μM IVIG was used during 10 min at 37° C. before being analyzed on a UHPLC system.

horse IgG = experiment: Immunoglobulin specificity on SDS-PAGE: horse IgG; conditions: o/n at 37° C.
Procedure: as §1, §2

mouse IgG2b = mouse IgG2b (Mus musculus, UniProt P01867); experiment: Immunoglobulin specificity on SDS-PAGE: mouse IgG2b; conditions: 37° C., listed as IdeSork2.0
mouse IgG2b, sequence (P01867 1-335 isoform P01867-2): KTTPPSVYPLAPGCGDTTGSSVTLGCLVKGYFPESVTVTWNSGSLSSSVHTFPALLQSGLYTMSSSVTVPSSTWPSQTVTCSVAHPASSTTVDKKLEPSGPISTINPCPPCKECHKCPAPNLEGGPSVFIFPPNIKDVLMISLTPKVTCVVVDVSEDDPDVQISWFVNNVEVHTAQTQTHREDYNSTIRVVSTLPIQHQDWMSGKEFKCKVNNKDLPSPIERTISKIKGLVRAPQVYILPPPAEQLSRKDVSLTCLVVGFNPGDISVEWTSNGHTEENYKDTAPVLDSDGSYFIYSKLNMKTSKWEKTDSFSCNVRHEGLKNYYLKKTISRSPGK
Procedure: (§3) FIG. 3. Specificity of IdeSork2.0. IdeSork2.0 was mixed with different antibodies and incubated o/n at 37° C. before analysis on SDS-PAGE. The enzyme itself is noted with an arrow. […] Mouse IgG1, mouse IgG2b and human IgA were not affected by IdeSork2.0.
as §2

IgG [1] = experiment: Time-dose assays (enzyme:substrate ratio, time)
Procedure: FIG. 8. IdeSork2.0 enzyme: substrate ratio. The impact of enzyme and substrate concentration for the reaction speed was investigated using a Box-Behnken experimental setting, also analyzing the impact of time for the reaction speed. Output was measured as percentage hydrolysis of IgG (top left figure), as well as quantity hydrolyzed IgG per unit enzyme (all other figures).
FIG. 9. IdeSork2.0 enzyme: substrate activity over time. To verify the impact of modifying the enzyme: substrate ratio, an experiment with varying amounts of substrate (5-40 μg) to a set amount of enzyme (1 μg) was conducted over time (30, 60, and 120 min).
To investigate the impact of substrate and enzyme concentration, as well as time needed to complete (>95% hydrolysis) a reaction, a new Box-Behnken assay was designed (FIG. 8). The data was supported by traditional assays, with similar results (FIG. 9). IdeSORK2.0 quite rapidly hydrolyzes the vast majority of the material, but needs a longer time to finish hydrolysis of the last percentages of intact IgG, similar to other immunoglobulin proteases. A ratio of 1:40 hydrolyzes >95% of IgG in 30-60 minutes.
To better understand the optimal conditions needed for the enzyme to exert its activity, a Box-Behnken design was employed for the experiment. Addition of NaCl (0-400 mM), pH (5.5-8.5), [enzyme], [substrate], time, and temperature were parameters investigated. […]

IgG in human serum = experiment: Activity of IgG hydrolases in human serum; conditions: serum (100%), E:S 1:40, 0-4 hours at 37° C., non-reduced SDS-PAGE
Procedure: FIG. 15. Activity of IgG hydrolases in human serum. Serum (100%) was spiked with IgG hydrolases and activity was analyzed over time using non-reduced SDS-PAGE.
For serum activity assays, an E: S ratio of 1:40 (assuming 10 mg/mL IgG in serum) was used, incubating 0-4 hours at 37° C. before analysis on a non-reduced SDS-PAGE. All enzymes were supplied by Genovis AB.

human IgA = experiment: Immunoglobulin specificity on SDS-PAGE: human IgA; conditions: 37° C.
Procedure: as §3, §2

IgG [2] = experiment: Optimal conditions, Box-Behnken design (pH, NaCl, temperature)
Procedure: FIG. 7. IdeSork2.0 optimal conditions. The optimal buffer composition for IdeSork2.0 was determined using a Box-Behnken experimental design, measuring the impact of pH, NaCl and temperature. Output was measures as percentage hydrolysis of IgG.
The optimal conditions for IdeSORK2.0 were assessed using a Box-Behnken experimental design to assess multiple factors and their inter-dependence. […] The enzymatic reaction is mainly driven by the substrate concentration (high concentration favours the reaction), while the enzyme concentration is secondary. This can also be seen as a low percentage IgG not being readily hydrolyzed even after a pro-longed incubation (FIG. 9).
To better understand the optimal conditions needed for the enzyme to exert its activity, a Box-Behnken design was employed for the experiment. Addition of NaCl (0-400 mM), pH (5.5-8.5), [enzyme], [substrate], time, and temperature were parameters investigated. Unless otherwise noted, all experiments were conducted in TBS at an enzyme: substrate ratio of 1:20, for 1 hour at 37° C.

[3] = system: denatured and reduced IgG; experiment: Activity on denatured and reduced IgG; conditions: urea-denatured and reduced IgG, E:S 1:10, 5 hours at 37° C.
Procedure: FIG. 17. Denatured IgG was incubated with IgG hydrolases to investigate the necessity of a conserved 3D structure of the substrate for the enzymes to exert their function.
IgG that had been urea-denatured and reduced was incubated with IgG-specific enzymes at an E: S ratio of 1:10, incubating for 5 hours at 37° C. before analysis on SDS-PAGE.

B1: IdeSORK2.0: SEQ ID NO: 2 (N terminal 312 amino acids of IdeSORK) with added N terminal methionine and C-terminal His6; 319 amino acids (protein)
chain: MSKRKLLKKIEKKDTSSVLTQKKQTKTLWADGVQVDDKDFKPSTENFGTNYLAAEYGIGKGYYDINKKFDGTDDDLCSGVVAANQLHWWLDRNKDYIEKYRQQSKDNGVTIGNTDIFELNKLHDEDQSNFFDFIKKSFGNKFLQPERLLNMYINGYGYLTSQDKAKTSQPSPSKLNFFQKVFKNNLLTDKTPINDIDEFSSQTKNALQNHKVLAVSFASIKNRGLGHVVTVWGADFDENGKVVALYVTDSDDRSKNIGNAKLGMKKLRIEVSAQDSSTIKLTGFEDKNSGGSLRHLYSLSTGEQIWKKYFEETHHHHHH
modifications: (IdeSORK2.0) Protein of SEQ ID NO 2 engineered to include an additional N terminal methionine and a C-terminal protein purification tag - His6
- Activity on dog IgG (dog IgG): only showed activity against horse and guinea pig IgG; also recorded: no visible effect
- Activity on horse IgG (horse IgG): showed activity
- Activity towards mouse IgG2b (mouse IgG2b): not affected
- Hydrolysis of IgG over time at varying substrate amounts (IgG [1]; 5-40 μg substrate to 1 μg enzyme, 30, 60 and 120 min): Almost all IgG is hydrolyzed within 30 minutes
- Hydrolysis of IgG (IgG [1]; ratio 1:40, 30-60 minutes): > 95%
- Immunoglobulin cleavage activity in the presence of human serum (IgG in human serum): demonstrated immunoglobulin cleavage activity
- Activity towards human IgA (human IgA): not active
- Activity towards human IgA (human IgA; listed as IdeSork2.0): not affected
- NaCl optimum (IgG [2]): 0 mM
- NaCl tolerated without a significant drop in activity (IgG [2]): up to 200 mM
- Requirement for co-factors or reducing agents (IgG [2]): no requirement for co-factors or reducing agents
- pH in which highly active (IgG [2]): 7.0-8.5
- pH optimum (IgG [2]): 7.5
- Effect of temperature on activity (IgG [2]; 37° C. versus room temperature): improved when incubated at 37 °C as compared to room temperature
- NaCl range (IgG [2]; >90% activity): 0 to 200 mM
- pH range (IgG [2]; >90% activity): 6.5-8.5
- Activity against denatured and reduced IgG [3]: not active

From patent publication US20250320480A1, “Immunoglobulin Cleaving Enzyme” (priority 2021, published 2025)
